Patent US6521748B2, “Polynucleotide encoding a mutant Rhodotorula glutinis tyrosine ammonia lyase polypeptide” (E. I. du Pont de Nemours and Company, priority 1999, dated 2003)
Like-named read-outs stand apart in the source and are kept apart here.

How the values were obtained:
[1] = tested on: tyrosine-auxotrophic E. coli strain AT2471 containing pCA18Km; assay: Growth of tyrosine-auxotrophic E. coli on minimal plate with tyrosine; assay type: cell-based; set-up: key: −: no growth; +: very poor growth; ++: poor growth; +++: good growth; conditions: no PHCA
Procedure: (§1) In order to find the suitable condition for selection, cell growth was tested on a minimal plate containing various concentrations of tyrosine or PHCA (see Table 9).

[2] = tested on: tyrosine-auxotrophic E. coli strain AT2471 containing pCA18Km; assay: Toxicity of PHCA to tyrosine-auxotrophic E. coli on minimal plate; assay type: cell-based; set-up: key to cell growth: −: no growth; +: very poor growth; ++: poor growth; +++: good growth; conditions: for cell growth: 0.004 mM tyrosine added
Procedure: as §1

[3] = TAL specific activity in cell free extracts; assay type: biochemical; conditions: cell free extract of E. coli clones over-expressing PAL from pKK223-3
Procedure: (§2) The PAL or TAL activity of the purified enzymes were measured using a spectrophotometer according to Abell et al., “Phenylalanine Ammonia-lyase from Yeast Rhodotorula glutinis,” Methods Enzymol. 142:242-248 (1987). The spectrophotometric assay for PAL determination was initiated by the addition of the enzyme to a solution containing 1.0 mM L-phenylalanine and 50 mM Tris-HCl (pH 8.5). The reaction was then followed by monitoring the absorbance of the product, cinnamic acid, at 290 nm using a molar extinction coefficient of 9000 cm^−1. The assay was run over a 5 min period using an amount of enzyme that produced absorbance changes in the range of 0.0075 to 0.018/min. One unit of activity indicated deamination of 1.0 μmol of phenylalanine to cinnamic acid per minute. The TAL activity was similarly measured using tyrosine in the reaction solution. The absorbance of the para-hydroxycinnamic acid produced was followed at 315 nm and the activity was determined using an extinction coefficient of 10,000 cm^−1 for PHCA. One unit of activity indicated deamination of 1.0 μmol of tyrosine to para-hydroxycinnamic acid per minute.
(§3) The cell pellet was resuspended with 0.5 mL/g cells, 50 mM Tris-HCl buffer (pH 8.5) and disrupted by a single passage through the French Pressure Cell at 20,000 psi. The disrupted cells were then centrifuged for 30 min at 14,200×g to remove the unbroken cell mass. […]

[4] = Enzyme kinetics of purified wild type and mutant PAL, PAL activity (spectrophotometric); assay type: biochemical; conditions: phenylalanine as substrate
Procedure: as §2
(§4) A detailed enzyme kinetics analysis using the yeast wild type and the purified mutant PAL enzyme and tyrosine or phenylalanine as substrate, was carried out. The PAL and TAL activities were measured spectrophotometrically as described in the General Methods and the KM and Vmax were determined from its Lineweaver-Burke plot. The kcat was calculated from Vmax assuming the presence of four active sites in the active tetramer.

[5] = Whole cell TAL/PAL activity ratio (follow-up assay after high throughput screen); assay type: cell-based, E. coli
Procedure: The following assay was performed to confirm that fully active mutant PAL enzyme was produced in BL21(DE3) E. coli cells. E. coli cells were grown in LB medium overnight. One mL of cell culture was pelleted and resuspended in 1 mL of 50 mM Tris-HCl buffer (pH 8.5) containing 0.5 mM tyrosine (for TAL activity measurement) or phenylalanine (for PAL activity measurement). The reaction mixture was incubated on the shaker at 37 C. for 1 hr. The reaction mixture was filtrated using 0.2 μm pore size filter (Millipore, Bedford, Mass.), and injected into HPLC (Hewlett-Packard Company, Palo Alto, Calif.). TAL or PAL activity was determined by measuring the concentration of the resulting PHCA or cinnamate. […]
5,000 mutant colonies were picked from agarose plates and screened by high throughput assay (Example 20). The initial hits were further investigated by a follow-up assay to confirm screening results. The TAL and PAL activities were measured using the whole cell assay, described in Example 17, and then ratio of TAL/PAL activities was calculated. The following table summarizes results of the follow-up assay for four mutants with altered TAL/PAL ratios:
A total of 5,000 mutant colonies from these three libraries were screened by high throughput assay (Example 20). Initial hits were further investigated by a follow-up HPLC assay to confirm the screening results as described in Example 21. One mutant with improved TAL/PAL ratio was found (Table 19).

[6] = Ratio of TAL to PAL catalytic efficiency of purified enzymes; assay type: biochemical
Procedure: as §4
The catalytic efficiency, defined as kcat/KM, was calculated for both the wild type and mutant enzyme. The ratio of the TAL catalytic efficiency versus the PAL of the wild type enzyme was 0.5 while that of the mutant enzymes had increased to 1.7 (see Table 11).

[7] = Enzyme kinetics of purified wild type and mutant PAL, TAL activity (spectrophotometric); assay type: biochemical; conditions: tyrosine as substrate
Procedure: as §2, §4

[8] = PAL specific activity in cell free extracts; assay type: biochemical; conditions: cell free extract of E. coli clones over-expressing PAL from pKK223-3
Procedure: as §2, §3

[9] = Ratio of PAL to TAL specific activity; assay type: biochemical; conditions: purified enzyme
Procedure: The PAL or TAL activity of the purified enzymes were measured using a spectrophotometer according to Abell et al., “Phenylalanine Ammonia-lyase from Yeast Rhodotorula glutinis,” Methods Enzymol. […] The spectrophotometric assay for PAL determination was initiated by the addition of the enzyme to a solution containing 1.0 mM L-phenylalanine and 50 mM Tris-HCl (pH 8.5). The reaction was then followed by monitoring the absorbance of the product, cinnamic acid, at 290 nm using a molar extinction coefficient of 9000 cm^−1. The assay was run over a 5 min period using an amount of enzyme that produced absorbance changes in the range of 0.0075 to 0.018/min. One unit of activity indicated deamination of 1.0 μmol of phenylalanine to cinnamic acid per minute. The TAL activity was similarly measured using tyrosine in the reaction solution. The absorbance of the para-hydroxycinnamic acid produced was followed at 315 nm and the activity was determined using an extinction coefficient of 10,000 cm^−1 for PHCA. One unit of activity indicated deamination of 1.0 μmol of tyrosine to para-hydroxycinnamic acid per minute.
The PAL/TAL activity was determined as described above.

[10] = from Vmax assuming four active sites

N[C@@H](Cc1ccc(O)cc1)C(=O)O [Tyrosine, tyrosine]
cell growth ([1]; 0.0001-0.0002 mM tyrosine): − | cell growth ([1]; 0.0003-0.0005 mM tyrosine): + | cell growth ([1]; 0.001-0.004 mM tyrosine): +++

O=C(O)C=Cc1ccc(O)cc1 [PHCA, Para-hydroxycinnamic acid]
cell growth ([2]; 0.0001-0.0002 mM PHCA): +++ | cell growth ([2]; 0.0003-0.0005 mM PHCA): +++ | cell growth ([2]; 0.001-0.004 mM PHCA): +++ | cell growth ([2]; 10 mM PHCA): − | cell growth ([2]; 1.0-2.0 mM PHCA): ++ | cell growth ([2]; 4.0-6.0 mM PHCA): + | toxicity to the cells ([2]; high concentrations): toxic

B1: Wild Type PAL: wildtype R. glutinis (Rhodosporidium toruloides) PAL enzyme, SEQ ID NO:8 (protein)
chain: MAPSLDSISHSFANGVASAKQAVNGASTNLAVAGSHLPTTQVTQVDIVEKMLAAPTDSTLELDGYSLNLGDVVSAARKGRPVRVKDSDEIRSKIDKSVEFLRSQLSMSVYGVTTGFGGSADTRTEDAISLQKALLEHQLCGVLPSSFDSFRLGRGLENSLPLEVVRGAMTIRVNSLTRGHSAVRLVVLEALTNFLNHGITPIVPLRGTISASGDLSPLSYIAAAISGHPDSKVHVVHEGKEKILYAREAMALFNLEPVVLGPKEGLGLVNGTAVSASMATLALHDAHMLSLLSQSLTAMTVEAMVGHAGSFHPFLHDVTRPHPTQIEVAGNIRKLLEGSRFAVHHEEEVKVKDDEGILRQDRYPLRTSPQWLGPLVSDLIHAHAVLTIEAGQSTTDNPLIDVENKTSHHGGNFQAAAVANTMEKTRLGLAQIGKLNFTQLTEMLNAGMNRGLPSCLAAEDPSLSYHCKGLDIAAAAYTSELGHLANPVTTHVQPAEMANQAVNSLALISARRTTESNDVLSLLLATHLYCVLQAIDLRAIEFEFKKQFGPAIVSLIDQHFGSAMTGSNLRDELVEKVNKTLAKRLEQTNSYDLVPRWHDAFSFAAGTVVEVLSSTSLSLAAVNAWKVAAAESAISLTRQVRETFWSAASTSSPALSYLSPRTQILYAFVREELGVKARRGDVFLGKQEVTIGSNVSKIYEAIKSGRINNVLLKMLA
highest specific activity, TAL [3]: 0.0650 U/mg protein | Km ([4]; Lineweaver-Burke plot): 250 µM | kcat [4, 10]: 2.09 s⁻¹ | TAL/PAL ratio [5]: 0.5 | TAL/PAL ratio ([5]; regional mutant amino acid No. 492-503, Table 19): 0.5 | TAL/PAL ratio ([5]; summary table of mutants): 0.5 | TAL/PAL ratio (catalytic efficiency) [6]: 0.5 | Km ([7]; Lineweaver-Burke plot): 111 µM | kcat [7, 10]: 0.46 s⁻¹ | highest specific activity, PAL [8]: 0.244 U/mg protein

B2: purified enzyme: purified PAL/TAL enzyme of Rhodosporidium toruloides (protein, UniProt P11544 1-716, looked up)
Phenylalanine/tyrosine …: MAPSLDSISHSFANGVASAKQAVNGASTNLAVAGSHLPTTQVTQVDIVEKMLAAPTDSTLELDGYSLNLGDVVSAARKGRPVRVKDSDEIRSKIDKSVEFLRSQLSMSVYGVTTGFGGSADTRTEDAISLQKALLEHQLCGVLPSSFDSFRLGRGLENSLPLEVVRGAMTIRVNSLTRGHSAVRLVVLEALTNFLNHGITPIVPLRGTISASGDLSPLSYIAAAISGHPDSKVHVVHEGKEKILYAREAMALFNLEPVVLGPKEGLGLVNGTAVSASMATLALHDAHMLSLLSQSLTAMTVEAMVGHAGSFHPFLHDVTRPHPTQIEVAGNIRKLLEGSRFAVHHEEEVKVKDDEGILRQDRYPLRTSPQWLGPLVSDLIHAHAVLTIEAGQSTTDNPLIDVENKTSHHGGNFQAAAVANTMEKTRLGLAQIGKLNFTQLTEMLNAGMNRGLPSCLAAEDPSLSYHCKGLDIAAAAYTSELGHLANPVTTHVQPAEMANQAVNSLALISARRTTESNDVLSLLLATHLYCVLQAIDLRAIEFEFKKQFGPAIVSLIDQHFGSAMTGSNLRDELVEKVNKTLAKRLEQTNSYDLVPRWHDAFSFAAGTVVEVLSSTSLSLAAVNAWKVAAAESAISLTRQVRETFWSAASTSSPALSYLSPRTQILYAFVREELGVKARRGDVFLGKQEVTIGSNVSKIYEAIKSGRINNVLLKMLA
PAL/TAL ratio [9]: 2.12
